“And” between values parts separate entries of the source, which are not always exact repeats. Equal entries are not always repeated.
How the values were obtained:
[1] = test system: M21-L, M21-L4 and M21-L-IIb cells; assay: DNA synthesis ([3H]-thymidine incorporation) in M21 variant lines; format: cell-based, human; conditions: M21-L and M21-LGpIIb, FIG. 9 B, D
Protocol: (§1) Adherent melanoma cells were detached (0.05% Trypsin/0.02% EDTA). Washed cells were seeded into 96-well flat-bottom microtest plates (1×10^4 cells per well) and cultured without (control) or in the presence of serially diluted antibodies in RPMI medium with 10% FCS. After 48 h, cells were pulse labelled for 18 h (18.5 kBeq [^3 H]-thymidine per well) and harvested. Incorporated radioactivity was measured and expressed as counts per minute.

[2] = in vivo; cited from earlier work
αvβ3 = target: T1, αvβ3 (Homo sapiens, UniProt P05106+P06756); assay: Direct competition assay, vitronectin binding to isolated αvβ3; conditions: isolated receptor
T1 construct: αVβ3 was purified from human placenta; from tissue; host or cells: human term placenta
T1 sequence (P06756 31-889 limits assumed): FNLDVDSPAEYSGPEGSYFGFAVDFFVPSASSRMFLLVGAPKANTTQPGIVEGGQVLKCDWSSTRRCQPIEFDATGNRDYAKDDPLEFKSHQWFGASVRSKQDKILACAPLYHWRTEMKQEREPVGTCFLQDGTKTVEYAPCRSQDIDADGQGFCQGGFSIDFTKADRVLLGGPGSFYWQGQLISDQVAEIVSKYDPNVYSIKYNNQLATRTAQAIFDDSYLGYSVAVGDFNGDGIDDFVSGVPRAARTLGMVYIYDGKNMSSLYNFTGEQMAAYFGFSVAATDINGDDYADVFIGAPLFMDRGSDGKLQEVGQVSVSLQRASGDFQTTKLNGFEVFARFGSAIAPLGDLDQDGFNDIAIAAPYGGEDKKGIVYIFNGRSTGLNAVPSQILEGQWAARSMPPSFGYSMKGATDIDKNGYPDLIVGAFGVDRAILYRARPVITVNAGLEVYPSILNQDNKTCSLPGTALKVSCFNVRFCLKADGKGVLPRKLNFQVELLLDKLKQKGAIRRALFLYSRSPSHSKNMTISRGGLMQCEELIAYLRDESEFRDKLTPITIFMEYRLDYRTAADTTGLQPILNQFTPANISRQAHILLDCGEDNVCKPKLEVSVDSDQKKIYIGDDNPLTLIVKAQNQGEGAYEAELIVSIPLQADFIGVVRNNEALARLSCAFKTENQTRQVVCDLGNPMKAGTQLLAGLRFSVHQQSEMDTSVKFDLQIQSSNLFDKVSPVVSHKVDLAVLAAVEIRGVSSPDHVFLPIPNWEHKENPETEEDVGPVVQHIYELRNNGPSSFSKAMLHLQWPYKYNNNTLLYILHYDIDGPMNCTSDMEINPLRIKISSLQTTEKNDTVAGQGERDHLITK
T1 sequence (P06756 891-1048 limits assumed): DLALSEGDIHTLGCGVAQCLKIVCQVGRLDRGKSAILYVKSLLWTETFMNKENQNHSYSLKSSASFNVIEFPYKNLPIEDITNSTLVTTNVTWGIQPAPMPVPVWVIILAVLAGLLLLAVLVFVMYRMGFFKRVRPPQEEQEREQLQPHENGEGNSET
T1 sequence (P05106 27-788): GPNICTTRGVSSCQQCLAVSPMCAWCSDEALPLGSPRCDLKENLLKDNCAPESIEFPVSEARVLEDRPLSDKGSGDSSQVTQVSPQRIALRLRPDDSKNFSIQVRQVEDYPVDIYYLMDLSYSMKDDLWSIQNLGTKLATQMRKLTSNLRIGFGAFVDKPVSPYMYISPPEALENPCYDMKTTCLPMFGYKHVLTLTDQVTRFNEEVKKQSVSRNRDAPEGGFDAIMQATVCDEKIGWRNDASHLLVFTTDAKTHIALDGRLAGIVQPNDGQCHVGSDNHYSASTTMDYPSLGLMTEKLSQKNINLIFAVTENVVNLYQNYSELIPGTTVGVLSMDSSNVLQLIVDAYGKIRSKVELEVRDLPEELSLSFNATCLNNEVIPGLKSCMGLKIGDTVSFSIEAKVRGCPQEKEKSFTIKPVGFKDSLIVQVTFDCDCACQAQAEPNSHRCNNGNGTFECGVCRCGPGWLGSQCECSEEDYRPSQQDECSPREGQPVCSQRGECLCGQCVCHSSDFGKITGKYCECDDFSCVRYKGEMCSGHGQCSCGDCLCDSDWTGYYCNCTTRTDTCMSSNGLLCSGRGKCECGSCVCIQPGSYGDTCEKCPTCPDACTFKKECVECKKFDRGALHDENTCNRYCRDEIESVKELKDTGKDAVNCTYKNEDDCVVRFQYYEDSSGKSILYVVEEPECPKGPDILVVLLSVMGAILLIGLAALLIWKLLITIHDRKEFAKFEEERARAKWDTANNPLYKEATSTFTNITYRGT
Protocol: The plate was washed once with buffer B (3% BSA (w/v), 100 mM NaCl, 1 mM MgCl2, 1 mM CaCl2, 10 mM MnCl2, 50 mM Tris-HCl; pH 7.4) and incubated 2 h at 20° C. in the same buffer.
After rinsing with buffer C (buffer B with BSA at 0.1% (w/v)) was added containing biotinylated ligand (1 μg ml^-1 end concentration) and serially diluted test peptides or proteins. After incubation (3 h, 30° C.), unbound ligand was washed from the plate by 3 rinses with buffer C, and incubation continued for 1 h with anti-biotin-alkaline phosphatase-conjugated antibody (1:10000 in buffer C) (Sigma) followed by PBS wash and detection of bound antibody with NBT-BCIP (Biorad) as substrate. ECM molecules and antibodies were routinely biotinylated and used in such an assay configuration.
Assays were routinely performed in triplicate or quadruplicate, and repeated at least 3 times to derive an IC50 from an unweighted sigmoid curve fit. Results were normalized against external control peptides to allow intra-assay comparison.

M21 cells [3] = assay: M21 cell proliferation assay; format: cell-based, human; parameters: dose or concentration left out as unconfirmed; conditions: M21, antibody (FIG. 8a)
Protocol: […] Growth and viability were estimated by Trypan blue dye exclusion. Activation was measured by the MTT assay as described above, and cell numbers were counted daily using a cell counter (Coulter electronics).

M21 cells [4] = assay: M21 cell attachment to vitronectin; format: cell-based, human; conditions: maximal block
Protocol: (§2) Cell Attachment Assays were as previously described (Goodman et al., 1991), using hexosaminidase activity (Landegren, 1984) to detect attached cells. Dilutions and cell suspensions were in attachment buffer (RPMI, 1% BSA, 25 mM HEPES; pH 7.4). Matrix proteins were coated onto 96- or 48-well plates, the wells were blocked with BSA and serially diluted MAbs were added to the wells followed by cells (2.5×10^4 -5×10^4). After 1 h at 37° C., non-adherent cells were washed away and attached cells counted against a standard curve run in parallel. Inhibition of attachment was calculated by using wells with no MAbs as reference. Typically, over 70% of added cells had attached to vitronectin at 1 h. Cell attachment to wells coated with BSA alone was routinely less than 5% of specifically attached cells.

B16F10 cells [5] = assay: B16F10 cell attachment to vitronectin; format: cell-based; conditions: murine cell
Protocol: as §2

WM793 cells [6] = assay: WM793 cell attachment to vitronectin; format: cell-based, human; conditions: FIG. 4e,f
Protocol: as §2

αvβ1 (V+B2 cells) = assay: Cell attachment to vitronectin mediated by αvβ1 (V+B2 cells); format: cell-based; conditions: FIG. 11
Protocol: as §2

B16F10 cells [7] = assay: Flow cytometry (FACS) on B16F10; format: binding; conditions: murine cell
Protocol: (§3) Cells were harvested with EDTA, washed, and 10^6 cells in PBS-1% BSA were incubated with MAb (10 μg ml^-1; 20 min, 4° C.). After washing and labelling (20 min, 4° C.) with goat anti-mouse Ig-FITC (Becton Dickinson), cells were incubated with propidium iodide before flow cytometry analysis (EPICS Profile II, Coulter). Living cells were selected by appropriate gates on the side and forward scatter. Fluorescein was excited at 488 nm with an argon ion laser and the emitted fluorescence (525 nm) was recorded. In some experiments, M21-L cells were stained following a brief fixation and permeabilization step (70% ethanol; 5 min×-20° C.).

M21 tumors = assay: Subcutaneous M21 tumor development in nude mice; format: in vivo, BALB/c nu/nu mice
Protocol: (§4) Tumor cells in exponential growth were harvested with EDTA, washed and examined for viability by trypan blue dye exclusion. Viability was between 96-99%. For primary tumor growth, cells (0.5×10^6 cells in 0.2 ml PBS++) were injected subcutaneously into the flanks of nude mice. Tumor growth was followed by measuring tumor diameters with callipers and the tumor volume was calculated using an approximated formula for a prolate ellipsoid: […]
(§5) where a is the longest axis of the tumor and b the shortest. A minimum of eight animals was used per group.
(§6) For experimental lung metastasis, cells were harvested (0.05% Trypsin/0.02%EDTA) and were injected into the tail vein of nude mice (0.5×10^6 cells in 0.2 ml PBS++). 7 weeks later the animals were sacrificed, the lungs removed and fixed in a Bouins' solution, and the tumor foci on the surface of the lungs counted. For antibody treatment, harvested and washed cells were incubated with purified endotoxin free MAbs (70 μg per 10^6 cells 0.5 ml PBS++) for 30 min at 20° C. in an end-over-end rotator before dilution to 0.5×10^6 cells in 0.2 ml PBS and injection. Cells viability was assessed by Trypan blue dye exclusion before and after completing the injection schedule, where no significant difference was found (viability pre-injection=viability post injection ±5%). The tumor inhibition data was assessed using the 2-tailed Student T-test.

M21-L-IIb cells = assay: Flow cytometry (FACS) on M21-L-IIb; format: binding, human; conditions: relative to secondary antibody only
Protocol: as §3

M21-L = assay: Subcutaneous M21-L tumor development in nude mice; format: in vivo, BALB/c nu/nu mice; conditions: FIG. 7b
Protocol: as §4, §5, §6

[8] = test system: human melanoma and carcinoma cell lines; assay: αV-mediated cell attachment to vitronectin, cell line panel; format: cell-based
Protocol: as §2

[9] = test system: αvβ3 (WM164 and M21 cells); assay: Cell attachment to vitronectin mediated by αvβ3 (WM164 and M21 cells); format: cell-based, human; conditions: FIG. 11
Protocol: as §2

WM793 cells [10] = assay: Flow cytometry (FACS) on WM793; format: binding, human; conditions: relative to secondary antibody only
Protocol: as §3

purified αvβ3 = assay: ELISA on purified αvβ3; format: binding, human
UCLA-P3 cells = assay: Flow cytometry (FACS) on UCLA-P3; format: binding, human; conditions: relative to secondary antibody only
Protocol: as §3

M21 cells [11] = assay: DNA synthesis ([3H]-thymidine incorporation) in M21; format: cell-based, human; parameters: dose or concentration left out as unconfirmed
Protocol: as §1

M21 cells [12] = assay: Flow cytometry (FACS) on M21; format: binding, human
Protocol: as §3

αvβ5 (UCLA-P3 cells) = assay: Cell attachment to vitronectin mediated by αvβ5 (UCLA-P3 cells); format: cell-based, human
Protocol: as §2

M21-L4 cells = assay: Flow cytometry (FACS) on M21-L4; format: binding, human; conditions: relative to secondary antibody only
Protocol: as §3

M21-L12 cells = assay: Flow cytometry (FACS) on M21-L12; format: binding, human; conditions: relative to secondary antibody only
Protocol: as §3

M21-L cells = assay: Flow cytometry (FACS) on M21-L; format: binding, human; conditions: relative to secondary antibody only
Protocol: as §3

M21 cells [13] = assay: Antibody-directed cellular cytotoxicity (ADCC) with BALB/c microglia; format: cell-based, human; conditions: up to 10^-7 M, murine microglia effector cells
Protocol: Preparation of BALB/C microglial cells and conditions for ADCC and antibody-effector cell mediated cytostasis (AECM) were essentially as described (Sutter et al., 1991). M21 cells were pulsed for 18 h with ^3 H-thymidine (18 kBq per 4×10^3 cells per well) and incubated on 96-well plates with BALB/C microglia (5×10^4 cells per well) in 200 μl DMEM/FCS (10%) in the presence of antibodies. After 48 hrs, [^3 H] label retained in the nuclear compartment of target cells was measured. MAb dependent cytotoxicity was calculated using the formula: [(experimental ccpm-spontaneous ccpm)/(maximum ccpm-spontaneous ccpm)]×100.

M21 tumor foci = assay: Lung colonization experimental metastasis assay; format: in vivo, BALB/C nu/nu mice
Protocol: as §6

M21 cells [14] = assay: M21 cell attachment to laminin and collagen; format: cell-based, human; conditions: M21, FIG. 5
Protocol: as §2

M21 cells [15] = assay: Complement dependent cytotoxicity (CDC); format: cell-based, human; conditions: not shown
Protocol: M21 cells (10,000) were plated in a 96-well plate with 50 μl of complete medium and 20 μl of antibodies. Rabbit serum (50 μl, 1:5; Behring) was added as source of complement and plate was incubated (37° C.; 60 min). Lysis was quantified by MTT technique (Mosmann, 1983). Percent of lysis was calculated using wells with 1% Tween-20 as 100% lysed controls, and without antibody as 0% lysed control.

CC(=O)O[C@H]1C(=O)[C@@]2(C)[C@H]([C@H](OC(=O)c3ccccc3)[C@]3(O)C[C@H](OC(=O)[C@H](O)[C@@H](NC(=O)c4ccccc4)c4ccccc4)C(C)=C1C3(C)C)[C@]1(OC(C)=O)CO[C@@H]1C[C@@H]2O [Taxol]
DNA synthesis, positive control [1]: completely suppresses

RGDS: RGD-peptide (SEQ ID NO:6)
serum half-life [2]: 8 min

GRGDSPK [Gly-Arg-Gly-Asp-Ser-Pro-Lys]
IC50 (αvβ3): ~2000 nM

B1: 17E6: murine IgG1 monoclonal antibody against human αv-integrin chain, from hybridoma 272-17E6 (DSM ACC2160) (antibody, V domains shown)
VH: QVQLQQSGAELAEPGASVKMSCKASGYTFSSFWMHWVKQRPGQGLEWIGYINPRSGYTECNEIFRDKATMTADTSSSTAYMQLSGLTSEDSAVYYCASFLGRGAMDYWGQGTSVTVSS
VL: DIQMTQTTSSLSASLGDRVIISCRASQDISNYLSWYQQKPDGTVKLLIFYTSKLHSGVPSRFSGSGSGTDYSLTISNLDQEDIATYFCQQGNTFPYTFGGGTKVEMR
kinetic of cell growth and saturation density (M21 cells [3]): not greatly influenced | block of M21 initial attachment to vitronectin (M21 cells [4]): ~ 85% and ~ 90% | B16F10 attachment on vitronectin (B16F10 cells [5]): not affected | IC50, WM793 attachment to vitronectin (WM793 cells [6]): ~ 60 ng ml^-1 | IC50, cell attachment mediated by αvβ1 (V+B2 cells) (αvβ1 (V+B2 cells)): ~ 0.1 μg ml^-1 | FACS reaction with B16F10 (B16F10 cells [7]): did not react | tumors and metastases at sacrifice (M21 tumors; 6 months, lungs, liver, kidney, spleen, colon, stomach, body cavities): neither subcutaneous tumors nor metastases | tumors taken in the presence of antibody (M21 tumors; M21 cells subcutaneously co-injected with antibody): 0/32 | experiments in which subcutaneous development of M21 tumors was blocked (M21 tumors; mouse, in vivo): 4/4 | time animals remain tumor free (M21 tumors; mouse, in vivo): > 6 months | Reactivity in flow cytometry, M21-L-llb (αllbβ3) (M21-L-IIb cells): - (1-2 (-)) | subcutaneous M21-L growth / take (M21-L): unaffected | IC50 in cellular assay [8]: ~ 100 ng ml^-1 | IC50 ([8]; antibody MW 150,000, read-out: IC50, αV-mediated cell attachment): 0.3 to 1 nM | initial attachment to vitronectin of cells reacting in FACS with 17E6 ([8]; hybridoma supernatants, FIG. 3): strongly blocked | IC50, αvβ3 attachment (WM164 and M21 cells) [9]: ~ 0.5 μg ml^-1 | Reactivity in flow cytometry, WM793 (αvβ3; αvβ5) (WM793 cells [10]): +++ (>9 (+++)) | 50% saturation in ELISA on isolated αvβ3 (purified αvβ3; FIG. 10): ~ 1 ng ml^-1 | 50% binding to αvβ3 in ELISA (purified αvβ3; screening ELISA): 10 to 20 ng/mL | EC50 (purified αvβ3; screening ELISA, read-out: 50% binding to αvβ3 in ELISA): 0.05 to 0.1 nM | Reactivity in flow cytometry, UCLA-P3 (αvβ5) (UCLA-P3 cells): +++ (>9 (+++)) | thymidine incorporation in M21 cells (M21 cells [11]): no effect | Reactivity in flow cytometry, M21 (αvβ3; αvβ5) (M21 cells [12]; relative to secondary antibody only, MAb 10 μg ml^-1): ++ (4-9 (++)) | FACS reaction with M21 (M21 cells [12]; αv-expressing line): strongly | IC50, attachment to vitronectin on αvβ5 (UCLAP3) (αvβ5 (UCLA-P3 cells); FIG. 4c,d): ~ 30 ng ml^-1 | IC50, cell attachment mediated by αvβ5 (UCLA-P3 cells) (αvβ5 (UCLA-P3 cells); vitronectin, FIG. 11): ~ 0.1 μg ml^-1 | Reactivity in flow cytometry, M21-L4 (M21-L4 cells): ++ (4-9 (++)) | Reactivity in flow cytometry, M21-L12 (M21-L12 cells): - (1-2 (-)) | Reactivity in flow cytometry, M21-L (M21-L cells): - (1-2 (-)) | ADCC against M21 (M21 cells [13]): did not mediate ADCC | Tumor Take (M21 tumor foci; 7 weeks after tail vein injection): 78 | Number of Tumor Foci, Mean ± SEM (M21 tumor foci; lung surface, 7 weeks): 8 ± 7.7 | Number of Tumor Foci, Median (M21 tumor foci; lung surface, 7 weeks): 5 | reduction of numbers of tumor colonies (M21 tumor foci; pre-incubation of M21 with antibody, tail-vein injection): 90% | % Control (M21 tumor foci; tumor foci relative to M21 control): 9% | cell attachment to other matrix substrates (laminin, collagen) (M21 cells [14]): lack of effect | complement mediated lysis on M21 cells (M21 cells [15]): did not affect

Source: patent publication US5985278A (Merck Patent Gesellschaft mit Beschrankter Haftung, priority 1994, dated 1999)
